Test: yeast display, Sf9 membrane polyspecificity reagent, FACS + sequencing; frameworks hold sequencing errors
Method in brief: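 Polyreactivity labels are assigned by the sorting gate from which each nanobody was recovered. The gates were low and high (top ~1%), set on anti-HA fluorescence for expression and streptavidin fluorescence for reagent binding. Before sorting, galactose-induced (36–48 hours) yeast display cells were stained for 1 hour at 4 °C with 10% biotinylated, detergent-solubilized Sf9 membrane reagent.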

Sequence | polyreactivity (PSR sort gate)
QFQLVESGGGLVQAGGSLRLSCAASGSIFYGYAMGWYRQAPGKERELVARITGSGGDTSYADSVKGRFTISRDNAKNTVYLQMNSLKPEDTAVYYCNTDLYITYTLYTGSEYDYWGQGTQVTVSS | low polyreactivity
QVQLVESGGGLVQAGGSLRLSFAASGSTFDNYAMGWYRQAPGKERELVAAIRRGGSTYYADSVKGRFTISRDNAKNTVYLQMNSLKPEDTAVYYCNAPITRFEGYFYWGQGTQVTVSS | high polyreactivity
QVQLVESGGGLVQAGGSLRLSCAASGGIFSYYAMGWYRQAHGKERELVAAISGSGGRTYYADSVKGRFTISRDNAKNTVYLQMNSLKPEDTAVYYCAADSLSYSWEYYYWGQGTQVTVSS | high polyreactivity
QVQLVESGGGLVQAGGSLRLSCAASGLIFYTYAMGWYRQAPGKERELVATISGRGGSTYYADSVKGRFTISRDNAKNTVYLQMNSLKPEDTAVYYCNVVPSTYYQYDYWGQGTQVTVSS | high polyreactivity
QVQLVESGGGLVQAGGSLRLSCAASGRIFTYYAKGWYRQPPGKERELVAVISSVGGTYYADSVKGRFTISRDNAKNTVYLQMNSLKPEDTAVYYCAALSDSRWHRFGYWGQGTQVTVSS | high polyreactivity
QVQLVESGGGLVQAGGSLRLSCAASGRIFVGYAMGWSRQAPGKERELVASITRSAGRTFYADSVKGRFTISRDNAKNTVYLQMNSLKPEDTAVYYCNARYWKGYNGYLRSTRRDDYWGQGTQVTVSS | high polyreactivity
QVQLIESGGGLVQAGGSLRLSCAASGRIFYYNAMGWYRQAPGKERELVAVITRSGGSTYYADSVKGRFTISRDTAKNTVYLQMNSLKQEDTAVYYCAKTWKGGYGYDYWGQGTQVTVSS | low polyreactivity
QVQLVESGGGLVQAGGSLRLSCAASGSIFTPYAMGWYRQAPGKERELVAAISSDGSTYYADSVKGRFTISRDNAKNTVYLQMNSLKTEDTAVYYCAAEYSWYYYYLFVGEYDYWGQGTQVTVSS | low polyreactivity
QVQLVESGGGIVQAGGRLRLSCAASGRIFDDNSMGWYRKAPGKETELVATISSSGVSTSYADSVKGRFTISRDNAKNTVYFQMNSLNPEYTAVYFCNAGYRLRYKFDYWGQGTQVTVAS | low polyreactivity
QVQLVESGRGLVQAGGSLSLSCAASGSILYIYAMVWNIQAPGKERELVDSINSGGSTNYADSVKGRFTISRDNAKNTVYLEMNSLIPEDTAVYYCAKSIGNPPQGFKDFDYWGQGTLVTVSS | low polyreactivity
QVQLVESGGGLFQAGGSLRISCAPSGFISHFYAMAWYRHAPGKEREFVARISYSVGSTYYADSVKGRFTISRDNAKNTVYVQMNSLKPEDTAVYDCNAGPQYDVHEYYYWGQGTQVTGSS | low polyreactivity
QVQLVESGGGLVQAGGSLRLSCAASGFTFYRYAMGWYRQAPGKERELVAAISRGGSTNYADSVKGRFTISRDNAKNTVYLQMNSLKPEDTAVYYCNTRYVKGFYWGQGTQVTVSS | high polyreactivity
QVQLVESGGGLVQAGGSLRLSCAASGFIFNYYAMGWYRQAPGKEREFVAAITWRGGSTNYADSVKGRFTISRDNAKNTVYLQMNSLKPEETAVYYCAAYSVWGGSYLALDYWGQGTQVTVSS | low polyreactivity
QVQLVEAGGGLVQAGGSLRLTCAASGSIISRYAMGWYRQAPGKEREFVAAISSSGGSTYYADSVKGRFTISRDNAKNTVDVQMNSLKPEDTAVYYCARYAYKVPIMGYWGQGTQVTVSS | high polyreactivity
QVQLVESWGGLVQAGGSLRLSCAASGFIFTLYAMGWYRQATGKEREFVAAISWSDGSTTYADSVKGRFTISRDNAKTTVYLQMNSLKPEDTAVYYCAAVTSSYIRGLVYHFYYWGQGTQVTVSS | low polyreactivity
QVQLVESGGGLVQAGGSLRLSCAASGRTFISYAMGWYRQAPGKERELVAGISRGGSTYYADSVKGRFTISRDNAMNTVYLQMNRLKPEDTAVYYCAARRWISSHSYKYGYWGQGTQVTVSS | high polyreactivity
QVQLQESGGGLVQAGGSLRLSCASSGYISQSSVMGWYRQAPGKEREFVASISYGATTYYADSVKGRFTISRDNAKNTVYLQTNSPKPEDTAVYYCAVWVKRGFSHRYWGQGTQVTVSS | high polyreactivity
QVQLVESGGGIVQAGGSLRVSCAASGRTYLRNAMGWSRQAPGKERELVASITSRGGRTYADSVKGRFTISRDNAKNTVYLQMNSLKPEDTAVYYCDARRQAGLRYDYWGQGTQVTVSS | high polyreactivity
QVQLVESGGGLVQAGGSLRLSCAASGFIFLKYRMGWYRQAPGKEREFVAAISRRGGSTNYADSVKGRFTISRDNEKNTVYLQMNSLKPEDTAVYYCGTDAFAGPVSYYYWGQGTQVSVSS | high polyreactivity
QVQLVESGGGLVQAGGSLRLSCAASGRTFYYYGRVWYRQAPGKERDFVAAITRSGGRTYYADSVKGRFTISRDNAKNTVYLQMNSLKPEDTAVYYCATGGYYRYSGLSVYGYPYEYWGQGTQVTVSS | high polyreactivity
QVQLEESGGGVVQAGGSLSLSCAASVSTFIFNTMGWYRQATGKERELVASITGDGRTNYADSVKGRFTISRDNAKNTVYLQMNSLKPEDTAVYDCAADGYDQYPLWAPPGDYWGQGTQVTVSS | low polyreactivity
QVQLVESGGGLVQAGGSLRLSCAASGRNSSWNAMGWYRPAPGKERELVAAISVRGGSTYADSVKGRFTISRDNAKNTVSLQMNSLTPADTAVYYCAKTYYPYRLGEGQYEYDYWGQGTQVTVSS | low polyreactivity

Sequence | polyreactivity (PSR sort gate)
QVQLVESGGRLVQAGGSLRLSCAASGRTFSNAIGWDRQAPGKEREEVADISSGGSTNYADSVKGRFTISRDNAKNTVYLQMNSLKPEDTAVYYCAAVSGSLYGYSDDYWGQGTQVTVSS | low polyreactivity
QVQLVESGGGLVQAGGSLRLSCAASGYTFYQNAMGWYRQAPGKERELVAAITFRTGSTYYADSVKGRFTISRDNAKNTVYLQMNSLKPEDTAVYYCAATRFLRYWWYGYWGQGTQVTVSS | low polyreactivity
QVQLLESGGGIVQAGGSLRLSCAASGSIFWGYAMGWYRQAPGKERELVAAISSSGGNTYYADSVKGRFTISRDNAKNTVYLQMNSLQPEETAVYYCAATPEFYGGKITDVSSQYGYWGQGPQVTVSS | low polyreactivity
QVQLVESGGGLVQAGGSLRLSCAASGSIFYGNAMGWYRQAPGKEREFVAGISWYGGSTYYADSVKGRFTISRDNAKNTVYLQMNSLKPEDTAVYYGATVADEPRAYSGYEESDYWGQGTQVTVSS | low polyreactivity
QVQLVESGGGLGQAGGSLRLSCAASGSIFYRYAMGWYRKAPGKERELVAAITRRGARTYYADSVKGRFTISRDNAKNTVYLQLNSLKPEDTAVYYCAATYYYWTGWRYVRGDYWGQGTQVTVSS | high polyreactivity
QVQLVESGGGLVQAGGSLRLSCAASGSTFHRNAMGWYRQAPGKERELVAAITSGGSTNYADSVKGRFKISRDNAKNTVYLQMNSLKPEDTAVYYCAADEVWGRDLGEYWGQGTQVTVSS | low polyreactivity
QVQLVESGGGLVQAGGSLRLSCAASGSIFRTNAMGWYRPAPGKERELVAAITGSGGSTYYADSVKGRFTISRDNAKNTVYLQMNSLKPEDTAVYYCATPVNRERHAEDYWGQGTQVTVSS | low polyreactivity
QVQLVESGGGLVQAGGSLRLSCAASGRIFVYYAMGWYRQAPGKERELVAAISSSGGSTYYADSVKGRFTISRDNAKNTVYLQMNSLKPEDTAVYYCNAVTYFSLSYPRHDYWGQGTQVTVSS | high polyreactivity
QVQLVESAGGLVQAGVSLRLSCAASGFTSSRNAMGWYRQAPGKERELVATISSGGDTYYADSVKGRFTISRDNAKNTVYLQMNTLKPEDTAVYYCNKDPLYAWGYDYWGQGTQVTVSS | low polyreactivity
QVQLVESGGRLVQAGGILRLSCAASGRIFAYYAMGWYRHSPGKERELVAAINWSGDGTNYADSVKGRFTISRDNEKNSVYLQMNSLKPEDTAVYYWNADWTSYGFGTRLDYWGQGTQVTVSS | low polyreactivity
QVQLVESGGGLVQAGGSHRLSCSASGITFYYYAMGWYRQAPGKERELVAAISRSGGRTYYADSVKGRFTISRDNAKNTVYLQMNSLKPEDTAVYYCAAVRYQGGDSSIEYDYWGQGTQVTVSW | high polyreactivity
QVQLVESGGGLVQAGGSLRLSCDASGSTFLTNTMGWYRQAPGKERELVAAISSGDSTYYADSVKGRFTISRDNAKNTVYLQLNSLKPEVTAVYYCARDGGWRNVPRDYWGQGTQVTVSS | low polyreactivity
QVQLVESGGRLVQAGGSLRLSCAASGRIFKSYAMGWDRQAPGKERELVAAISRSGGRTYYADSVKGRFTISRDTAKNTVYLQMICLKPEDTAVYFCAGTTIVAPYWGQGTQVTVST | low polyreactivity
QDQLVESGGGLVQAGGSLRLSCAASGSISYYAMGWYRQAPGKERELVAAISSSGGSTYYADSVKGRFTISRDNAKNTVYLQMNSLKPEDTAVYYCAARYYGFPSKYDYWGQGTQVTVSS | high polyreactivity
QVQLVESGGGLVQAGGSLRLSCAASGSTFFPYAMGWYRQAPGKERELVATINYSGGGTYYADSVKGRFTISRDNAKNTGYLQMNSLKPEDTAVYYCAKTLARFDRGYYWGQGTQVTVSS | low polyreactivity
QVQLVESGGGLVQAGGSLRLSCAASGSSFTPNALGWYRQAPGKERELVAAISSSSDRTYYADSVKGRFTISRDNAKNTVYLQMNSLKPEDTAVYYCNARTEYASSRYYYWGQGTQVTVSS | high polyreactivity
QVQLVESGGGLVQAGGSLRLSCAASGRIFFANAMGWYRQAPGKERELVATITSGESTNYADSVKGRFTISRDNAKNTVYFEMNSLKPEDTAVYYCAADYYWYSPGAYSYAGYDYWGQGTQVTVSS | low polyreactivity
QVQLVESGGGLVQAGGSLRLSCAASGFTFLAYSMGWYRQAPGKERELVAAIRWSGRRTYYADSVKGRFTISRDNAKNTVYLQMNSLKPEDTAVYYCAADTRRVREYNYWGQGTQVTVSS | low polyreactivity
QVQLVESGGGLVQAGGSLRLSCAASGRIFRVNAMGWYRQAPGKERELVAAISWIGGRTYYADSVKGRFTISRDNAKNTVYLQMNSQKPEDTAVYYCAAVGSSSTHWASRSYRYNYWGQGTQVTVSS | high polyreactivity
QVQLVESGGGLVQAGGSLRLSCAASGRIFGYYAMGWYRQAPGTERELVASIRRGTRTNYADSVKGRFTISRDNAKNTVYLQMNSLKPEDTAVYYCAATRFQFTTTPWYDYWGQGTQVTVSS | high polyreactivity
QVQLVESGGGLVQAGGSLRLSCAASGSIFHTYAMGWYRQAPGKERELVAAITVSGGDTYYADSVKGRFTISRDNAKNTGYLQMNSLKPEDTAVYYCAKRIFDTFDSWGQGTQVTVSS | low polyreactivity

Reference: the nanobody polyreactivity screen of Harvey et al. (2022)
